In the supplement of paper PMC10567573:

B1: INTS4 (parent)
chain: AKQIMEETYKMEFMYSGVENKQVV
B2: RHOBTB3 (parent)
chain: GGADIIVIKYNVNDKFSFHEVKDN

Variants of: B1
Assay: protein stability index of a GFP-peptide fusion (GPS, HEK-293T) (PSI 1-6); higher = more stable
Details: c terminus: a fixed tail appended
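Note: lentivirally expressed fusions sorted by FACS into six bins by GFP to DsRed ratio, PSI derived from sequencing read proportions per bin multiplied by bin number.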

Variant | protein stability index
AKQIMEETYKMEFMYSGCENKQVV | 1.92
AKQIMEETYKMEFMYSGVESKQVV | 1.44
AKQIMEETYKMEFNYSGVENKQVV | 1.99
AKQIMEETYKMEFMYSGVENPQVV | 2.99
AKQIMEELYKMEFMYSGVENKQVV | 2.67
AKQIMEETVKMEFMYSGVENKQVV | 3.1
AKQIMEETYKAEFMYSGVENKQVV | 1.42
AKQIMEETYKMQFMYSGVENKQVV | 2.42
AKQIMEGTYKMEFMYSGVENKQVV | 2.1
AKQIMEETYKMEFMYSGVENKQVQ | 1.89
AKQIMEETYKMEFMYSGVENHQVV | 1.75
AKQIMEATYKMEFMYSGVENKQVV | 2.04
AKQIMEETYKMEFMRSGVENKQVV | 2.67
AKQIMEETYKMEFFYSGVENKQVV | 1.77
AKQIMEERYKMEFMYSGVENKQVV | 1.84
AKQIMEETYKMEFHYSGVENKQVV | 1.87

Variant | protein stability index
AKQIMEWTYKMEFMYSGVENKQVV | 3.34
AKQIMEETYKNEFMYSGVENKQVV | 3.98
AKQIMNETYKMEFMYSGVENKQVV | 2.12
AKQIMEETYKMEFMYSMVENKQVV | 1.65
AKQIMEETYKMEFMYSGVENKQVL | 1.73
HKQIMEETYKMEFMYSGVENKQVV | 2.72
ANQIMEETYKMEFMYSGVENKQVV | 3.62
AKQIMEETYKMEFMYSGVENKQCV | 1.6
AKQIMEETYKMEFMYHGVENKQVV | 1.41
AKQIMEETYKMEFMYSGRENKQVV | 1.54
AKQIMEETYPMEFMYSGVENKQVV | 3.79
AKQIMEETYKMEMMYSGVENKQVV | 1.86
AKQIMEETYKMRFMYSGVENKQVV | 2.34
AKQIMEETYKMEFMYSGEENKQVV | 2.78
ADQIMEETYKMEFMYSGVENKQVV | 3.15

Variants of: B2
Assay: as above
Details: c terminus: a fixed tail appended

Variant | protein stability index
AGADIIVIKYNVNDKFSFHEVKDN | 2.07
CGADIIVIKYNVNDKFSFHEVKDN | 2.27
DGADIIVIKYNVNDKFSFHEVKDN | 2.67
EGADIIVIKYNVNDKFSFHEVKDN | 2.13
FGADIIVIKYNVNDKFSFHEVKDN | 2.69
HGADIIVIKYNVNDKFSFHEVKDN | 2.3
IGADIIVIKYNVNDKFSFHEVKDN | 2.53
KGADIIVIKYNVNDKFSFHEVKDN | 2.99
LGADIIVIKYNVNDKFSFHEVKDN | 2.44
MGADIIVIKYNVNDKFSFHEVKDN | 1.97
NGADIIVIKYNVNDKFSFHEVKDN | 2.96
PGADIIVIKYNVNDKFSFHEVKDN | 2.18
QGADIIVIKYNVNDKFSFHEVKDN | 2.37
RGADIIVIKYNVNDKFSFHEVKDN | 3.04
SGADIIVIKYNVNDKFSFHEVKDN | 3.49
TGADIIVIKYNVNDKFSFHEVKDN | 2.99
VGADIIVIKYNVNDKFSFHEVKDN | 2.1
WGADIIVIKYNVNDKFSFHEVKDN | 1.54
YGADIIVIKYNVNDKFSFHEVKDN | 2.04
GAADIIVIKYNVNDKFSFHEVKDN | 1.69
GCADIIVIKYNVNDKFSFHEVKDN | 1.97

Variant | protein stability index
GDADIIVIKYNVNDKFSFHEVKDN | 2.31
GEADIIVIKYNVNDKFSFHEVKDN | 1.98
GFADIIVIKYNVNDKFSFHEVKDN | 3.68
GHADIIVIKYNVNDKFSFHEVKDN | 3.5
GIADIIVIKYNVNDKFSFHEVKDN | 1.52
GKADIIVIKYNVNDKFSFHEVKDN | 2.86
GLADIIVIKYNVNDKFSFHEVKDN | 1.71
GMADIIVIKYNVNDKFSFHEVKDN | 3.43
GPADIIVIKYNVNDKFSFHEVKDN | 1.52
GQADIIVIKYNVNDKFSFHEVKDN | 1.86
GRADIIVIKYNVNDKFSFHEVKDN | 2.76
GSADIIVIKYNVNDKFSFHEVKDN | 1.62
GTADIIVIKYNVNDKFSFHEVKDN | 2.38
GVADIIVIKYNVNDKFSFHEVKDN | 1.64
GYADIIVIKYNVNDKFSFHEVKDN | 2.69
GGDDIIVIKYNVNDKFSFHEVKDN | 2.85
GGEDIIVIKYNVNDKFSFHEVKDN | 1.74
GGFDIIVIKYNVNDKFSFHEVKDN | 3.37
GGHDIIVIKYNVNDKFSFHEVKDN | 3.04
GGIDIIVIKYNVNDKFSFHEVKDN | 3.1
GGKDIIVIKYNVNDKFSFHEVKDN | 2.65

Variant | protein stability index
GGLDIIVIKYNVNDKFSFHEVKDN | 2.64
GGMDIIVIKYNVNDKFSFHEVKDN | 2.03
GGPDIIVIKYNVNDKFSFHEVKDN | 2.35
GGQDIIVIKYNVNDKFSFHEVKDN | 2.73
GGSDIIVIKYNVNDKFSFHEVKDN | 1.74
GGTDIIVIKYNVNDKFSFHEVKDN | 2.21
GGWDIIVIKYNVNDKFSFHEVKDN | 2.05
GGYDIIVIKYNVNDKFSFHEVKDN | 2.96
GGAAIIVIKYNVNDKFSFHEVKDN | 2.91
GGACIIVIKYNVNDKFSFHEVKDN | 2.96
GGAEIIVIKYNVNDKFSFHEVKDN | 4.16
GGAFIIVIKYNVNDKFSFHEVKDN | 1.97
GGAGIIVIKYNVNDKFSFHEVKDN | 3.68
GGAHIIVIKYNVNDKFSFHEVKDN | 2.21
GGAIIIVIKYNVNDKFSFHEVKDN | 3.04
GGAKIIVIKYNVNDKFSFHEVKDN | 4.09
GGALIIVIKYNVNDKFSFHEVKDN | 1.8
GGAMIIVIKYNVNDKFSFHEVKDN | 3.48
GGANIIVIKYNVNDKFSFHEVKDN | 2.47
GGAPIIVIKYNVNDKFSFHEVKDN | 3.07
GGARIIVIKYNVNDKFSFHEVKDN | 4.21
